The target of assay [1] is YPet. Nature of the assay: FRET or BRET.
Assay [2] deals with YPet. Nature of the assay: FRET or BRET. The source holds these as a separate data set.

Read-outs that look alike come from different tables or passages of the source.

Two substances from publication PMC3158092 can be followed below.

For CyPet, in assay [1], the FRET efficiency, oxidized (0 mmol/L DTT) stood at 0.371 and the FRET efficiency, reduced (10 mmol/L DTT) is 0.375. Moreover, in assay [2], the FRET efficiency, oxidized (0 mmol/L DTT) came out at 0.27 and the FRET efficiency, reduced (10 mmol/L DTT) was found to be 0.265.
In the case of ECFP, in assay [2], the FRET efficiency, oxidized (0 mmol/L DTT) was found to be 0.288 and the FRET efficiency, reduced (10 mmol/L DTT) is 0.376.
